Experimental data from patent US7186551B1, “3′-phosphoadenosine -5′-phosphosulfate synthetase 2 (PAPSS2) sequence variants” (Mayo Foundation for Medical Education and Research, priority 2001, dated 2007).

Columns and labels:
PAPSS2 [1] = experiment: Substrate kinetic studies of recombinant PAPSS2 with ATP and Na2SO4; assay type: biochemical, human
Protocol: To estimate apparent Km values of PAPSS2 for the two reaction cosubstrates, a series of ATP (0.125–4 mM) and Na2SO4 (0.125–16 mM) concentrations were tested with the recombinant allozymes. When ATP was the varied substrate, the concentration of Na2SO4 was 4 mM, and when Na2SO4 was the varied substrate, the concentration of ATP was 1 mM. Blanks for each substrate concentration were included by assaying COS-1 cell cytosol after transfection with empty vector.
Data Analysis: Apparent Km values were calculated by using the method of Wilkinson with a computer program written by Cleland. Wilkinson, Biochem. J., 80:324–332 (1961); and Cleland, Nature, 198:[…] (1963). Statistical comparisons of data were performed by ANOVA with the StatView program, version 4.5 (Abacus Concepts, Inc., Berkeley, Calif.). Apparent Km, S50 and Vmax values for the wild-type and variant PAPSS2 allozymes were compared by the use of unpaired Student's t-test.
Alterations in amino acid sequence can alter enzyme substrate affinity and/or catalytic efficiency. Decreased activity of the Val291Met allozyme—without a significant alteration in level of enzyme protein—could have resulted from a change in substrate kinetics. Therefore, a series of ATP (0.125–4 mM) and Na2SO4 (0.125–16 mM) concentrations were used to estimate apparent Km values for recombinant wild type PAPSS2 and for the Val291Met variant allozyme. […] ATP concentrations at which 50% maximal velocity was achieved (S50 values) were 0.70 and 0.95 mM for the wild type and variant allozymes, respectively (Table 4). In both cases, the Hill coefficient was greater than 2, […]. In contrast, substrate kinetics of both allozymes for Na2SO4 conformed to Michaelis-Menten predictions (FIG. 5B). […] In summary, decreased activity for the Val1291Met variant appeared to result from an alteration in substrate kinetics, while decreased activity for the Glu10Lys allozyme, in contrast, resulted primarily from a decrease in the quantity of enzyme protein. Because the Val291Met variant was encoded by a construct that contained the most common PAPSS2 nonsynonymous cSNP, these observations could have functional implications for the sulfate conjugation of both endogenous and/or exogenous compounds.

PAPSS2 [2] = target: T1, PAPSS2 (Homo sapiens, UniProt O95340); experiment: PAPSS activity of cells transfected with wild type PAPSS2 construct versus empty vector / endogenous activity; assay type: biochemical; settings: loxP-modified p91023(b) vector, COS-1 cells
T1 construct: the wild-type full-length open reading frame (ORF) of the human PAPSS2 cDNA; made in house; host or cells: COS-1 or HepG2 cells, transient transfection; cytosol not purified
T1 sequence (O95340 1-614 R426C): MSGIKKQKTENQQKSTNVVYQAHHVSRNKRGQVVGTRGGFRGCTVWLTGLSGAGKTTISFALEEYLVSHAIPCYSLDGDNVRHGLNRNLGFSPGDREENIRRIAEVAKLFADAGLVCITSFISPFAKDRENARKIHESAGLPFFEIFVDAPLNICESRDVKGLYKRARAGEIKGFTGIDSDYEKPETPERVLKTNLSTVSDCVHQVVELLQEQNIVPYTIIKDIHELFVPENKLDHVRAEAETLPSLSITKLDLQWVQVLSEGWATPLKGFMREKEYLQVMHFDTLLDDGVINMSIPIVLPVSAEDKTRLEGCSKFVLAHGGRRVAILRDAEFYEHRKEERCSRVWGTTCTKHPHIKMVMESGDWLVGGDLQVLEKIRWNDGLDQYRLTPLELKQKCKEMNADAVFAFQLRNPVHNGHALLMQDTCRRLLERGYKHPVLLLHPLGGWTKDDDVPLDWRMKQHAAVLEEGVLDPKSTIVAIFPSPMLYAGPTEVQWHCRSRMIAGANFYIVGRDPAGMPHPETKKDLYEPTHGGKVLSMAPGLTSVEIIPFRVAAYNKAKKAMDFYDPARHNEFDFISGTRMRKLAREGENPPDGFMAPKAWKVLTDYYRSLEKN
Protocol: Initial expression studies were performed with the commercially available pcDNA4/HisMax-E (pcDNA4) acceptor vector (Invitrogen). Specifically, the pUni donor vector, with and without the PAPSS2 cDNA insert, was combined with the pcDNA4 acceptor vector by Cre recombinase through the loxP sites present in both donor and acceptor vectors. The resultant fusion constructs (pUni/pcDNA4) then were used to transfect either COS-1 or HepG2 cells. However, the construct with the wild type PAPSS2 cDNA insert expressed only about 2-fold higher PAPSS activity in both COS-1 and HepG2 cells than did the control “empty” pUni-pcDNA4. This low signal/noise ratio was due in part to the high levels of endogenous PAPSS activity in mammalian cells. Obviously, this situation would have made it difficult to study the functional significance of PAPSS2 non-synonymous cSNPs.
The loxP site required for Cre recombinase-mediated recombination thus was adapted for cloning into the p91023(b) cloning site so a recombination approach could be used to clone PAPSS2 cDNAs into this vector. A 133 base pair pcDNA4 DNA segment (nucleotides 1080–1212) containing the N-terminal His-tag and the loxP site was amplified by PCR, and this amplicon was ligated into the EcoRI site of p91023(b). As a result, the loxP-modified p91023(b) acceptor vector was also able to add an N-terminal His-tag to the expressed protein. […]

[3] = ATP varied 0.125-4 mM, Na2SO4 4 mM, listed as Wild Type

increase in PAPSS activity over basal endogenous activity (PAPSS2 [2]): greater than 7 fold
B1: wild type: reference human PAPSS2 polypeptide (SEQ ID NO:9, GenBank AF091242), recombinantly expressed in COS-1 cells (protein, listed as Homo sapiens)
chain: MSGIKKQKTENQQKSTNVVYQAHHVSRNKRGQVVGTRGGFRGCTVWLTGLSGAGKTTISFALEEYLVSHAIPCYSLDGDNVRHGLNRNLGFSPGDREENIRRIAEVAKLFADAGLVCITSFISPFAKDRENARKIHESAGLPFFEIFVDAPLNICESRDVKGLYKRARAGEIKGFTGIDSDYEKPETPERVLKTNLSTVSDCVHQVVELLQEQNIVPYTIIKDIHELFVPENKLDHVRAEAETLPSLSITKLDLQWVQVLSEGWATPLKGFMREKEYLQVMHFDTLLDDGVINMSIPIVLPVSAEDKTRLEGCSKFVLAHGGRRVAILRDAEFYEHRKEERCSRVWGTTCTKHPHIKMVMESGDWLVGGDLQVLEKIRWNDGLDQYRLTPLELKQKCKEMNADAVFAFQLRNPVHNGHALLMQDTCRRLLERGYKHPVLLLHPLGGWTKDDDVPLDWRMKQHAAVLEEGVLDPKSTIVAIFPSPMLYAGPTEVQWHCRSRMIAGANFYIVGRDPAGMPHPETKKDLYEPTHGGKVLSMAPGLTSVEIIPFRVAAYNKAKKAMDFYDPARHNEFDFISGTRMRKLAREGENPPDGFMAPKAWKVLTDYYRSLEKN
S50 for ATP (ATP concentration at which 50% maximal velocity was achieved) (PAPSS2 [1]; ATP varied 0.125-4 mM, Na2SO4 4 mM): 0.70 mM
Hill coefficient, ATP (PAPSS2 [1]; [3]): 5.4 ± 0.1
S50 for ATP (ATP concentration at which 50% maximal velocity was achieved) (PAPSS2 [1]; [3]): 0.70 ± 0.01 mM
Km (PAPSS2 [1]; apparent Km, Na2SO4 varied 0.125-16 mM, ATP 1 mM): 870 µM
Vmax/S50, ATP (PAPSS2 [1]; ratio, wild type = 100, ATP as varied substrate): 100
Vmax, ATP (PAPSS2 [1]; relative Vmax, wild type = 100, ATP as varied substrate): 100
Vmax, Na2SO4 (PAPSS2 [1]; relative Vmax, wild type = 100, Na2SO4 as varied substrate): 100
